US6384189 (UAB RESEARCH FOUNDATION, dated 2002)
Like-named read-outs stand apart in the source and are kept apart here.

Assays:
[1] = biological target: recombinant small latent TGF-β; assay: cell-based or functional assay
[2] = biological target: recombinant small latent TGF-β; assay: cell-based or functional assay; remark: listed apart in the source

| Binder | Fold Activation of Latent TGF-β over Baseline (soft agar NRK colony formation) [1] | Fold Activation of Latent TGF-β over Baseline (soft agar NRK colony formation) [2] |
| --- | --- | --- |
| KRFKQDGGWSHWSPWSS [KRFKQDGGWSHWSPWSS (SEQ ID NO:15)] | 2 fold over baseline |  |
| KRFKQDGG [KRFKQDGG (SEQ ID NO:9)] | 2.1 fold over baseline |  |
| KRFKQDGGWSHW [KRFKQDGGWSHW (SEQ ID NO:16)] | 1.9 fold over baseline |  |
| QRFK [QRFK (SEQ ID NO:8)] |  | 2 fold over baseline |
| KRFKQDGGWSHWSP [KRFKQDGGWSHWSP (SEQ ID NO:14)] | 2.3 fold over baseline |  |
| KRFK [KRFK (SEQ ID NO:5)] | 2 fold over baseline | 2 fold over baseline |
| KKFK [KKFK (SEQ ID NO:32)] |  | 2.2 fold over baseline |
| KRFKQDGGWWSP [KRFKQDGGWWSP (SEQ ID NO:17)] | 2.1 fold over baseline |  |
| HRFK [HRFK (SEQ ID NO:6)] |  | 2 fold over baseline |
